Measurements published in patent US20200317802A1 (Merck KGaA, published 2020).

T1: recombinant human ADAMTS5 (R&D Systems cat #2198-AD) (human, UniProt Q9UNA0 262-622, limits assumed)
T1 construct: bought protein
T1 sequence: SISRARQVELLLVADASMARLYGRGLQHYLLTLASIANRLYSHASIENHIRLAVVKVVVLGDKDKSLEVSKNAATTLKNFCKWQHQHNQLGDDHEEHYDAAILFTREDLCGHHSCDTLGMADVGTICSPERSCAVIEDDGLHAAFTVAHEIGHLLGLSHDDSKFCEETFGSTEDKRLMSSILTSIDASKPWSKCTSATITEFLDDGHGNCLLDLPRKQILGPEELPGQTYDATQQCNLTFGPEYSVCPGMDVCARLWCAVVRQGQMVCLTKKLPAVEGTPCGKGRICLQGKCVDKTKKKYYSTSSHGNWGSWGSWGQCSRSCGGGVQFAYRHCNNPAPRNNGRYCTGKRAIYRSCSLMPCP

T2: rat recombinant ADAMTS5 (rat, UniProt Q9R001 262-618 (mouse entry))
T2 construct: in house, HEK293, His tag in the entry
T2 chain: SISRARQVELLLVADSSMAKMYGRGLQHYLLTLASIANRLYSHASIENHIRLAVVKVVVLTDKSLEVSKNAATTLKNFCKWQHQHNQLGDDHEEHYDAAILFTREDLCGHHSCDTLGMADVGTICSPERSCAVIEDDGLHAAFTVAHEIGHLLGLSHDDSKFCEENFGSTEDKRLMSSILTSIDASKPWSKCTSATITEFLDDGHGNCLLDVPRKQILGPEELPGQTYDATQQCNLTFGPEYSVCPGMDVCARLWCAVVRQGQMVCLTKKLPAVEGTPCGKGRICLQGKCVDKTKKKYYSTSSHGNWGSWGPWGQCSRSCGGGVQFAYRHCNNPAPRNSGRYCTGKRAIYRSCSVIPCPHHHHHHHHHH


How the values were obtained:
[1] = target: T1, recombinant human ADAMTS5 (R&D Systems …); test: SPR kinetics, Biacore T100, ADAMTS5 immobilised
Protocol: (§1) For referencing, affinity for human ADAMTS5 was also determined. Thereto, rat and human ADAMTS5 were immobilized onto a CM5 chip via amine coupling, using EDC and NHS chemistry. Purified Nanobodies were injected for 2 minutes at different concentrations (between 1 and 1000 nM) and allowed to dissociate for 25 min at a flow rate of 45 μl/min. The kinetic constants were calculated from the sensorgrams using the BIAEvaluation software (1:1 interaction).

[2] = target: T2, rat recombinant ADAMTS5; test: SPR kinetics, Biacore T100, ADAMTS5 immobilised
Protocol: as §1

[3] = target: T1, recombinant human ADAMTS5 (R&D Systems …); test: cell-based or functional assay

| Kd [1] | Kd [2] | AlphaLISA IC50, - HSA [3] | Binder |
| --- | --- | --- | --- |
| 4.9 nM | 5.3 nM |  | Nanobody 093 (3F04 (N100fQ)) (VHH, N-glycosylation motif knocked out; also called construct 093) VHH: EVQLVESGGGSVQAGGSLRLSCVASGRYPMAWFRQAPGKEREFVAGVSWGGDRTYYADSVQGRFTVSRDYAKNTLYLQMNSLKPEDAAVYYCAGDPWGRLFRVKDQYSDWGQGTLVTVSS |
| 3.5 nM | 1.7 nM | 0.1 nM | Nanobody 049 (11B06 (N52S)) (VHH, N-glycosylation motif knocked out; also called construct 049) VHH: EVQLVESGGGLVQAGGSLRLSCAASGLTFRRNAMGWFRQAPGKERELLAGISWSGGTTYYVDSVKGRFTISRDNAKNTVDLQMISPKPEDTAVYYCAADGDIGTLVNDENPRYWGQGTLVTVSS |
